Our source for the fold concentration of binding sites against Cad12, Bmax (concentration of receptors) (fmoles/mg protein) and Kd values is US20090018074A1.

One may read the Kd as the constant that tells how readily two partners part at equilibrium. Read a high Kd as lower affinity.

Assay [1] has as its target Cad11-12 truncated Bt-R1a cadherin expressed in S2 cells (Manduca sexta). The experiment in a line: 125I-Cry1Ab saturation binding on S2 cell suspensions; reference Cad12.
Assay [2] deals with full length Bt-R1a cadherin expressed in Drosophila S2 cells (Manduca sexta). Description: 125I-Cry1Ab saturation binding on suspensions of S2 cells expressing full-length Bt-R1a.
The target is the same in assay [3]. Description: 125I-Cry1Ab saturation binding on suspensions of S2 cells expressing full-length Bt-R1a; dissociation constant (Kcom).
Assay [4] has as its target Cad11-12 truncated Bt-R1a cadherin expressed in S2 cells (Manduca sexta). Description: 125I-Cry1Ab saturation binding on suspensions of S2 cells expressing the fragment.
The target of assay [5] is Cad7-12 truncated Bt-R1a cadherin expressed in S2 cells (Manduca sexta). The assay is described as above.
Assay [6] concerns the target Cad12 truncated Bt-R1a cadherin expressed in S2 cells (Manduca sexta). Described as above.
Assay [7] has as its target Cad7-12 truncated Bt-R1a cadherin expressed in S2 cells (Manduca sexta). Description: 125I-Cry1Ab saturation binding on suspensions of S2 cells expressing the fragment; dissociation constant (Kcom).

Cry1Ab toxin (ligand) returned a fold concentration of binding sites against Cad12 in assay [1] of 3 fold. The Bmax (concentration of receptors) (fmoles/mg protein) in assay [2] stood at 625; in assay [4], 3320; in assay [5] it was 506; in assay [6] it was 1410. Further, the values for the Kd in assay [3] and in assay [7] were 3.55 nM and 2.05 nM, respectively.
